Measured values taken from patent US20150361183A1 (published 2015).
Like-named read-outs stand apart in the source and are kept apart here.

Tests used:
[1] = biological target: T1, C3b (UniProt P01024 749-1663; P01024 23-667); assay: SPR; thioester-coupled C3b (clustered), steady state
[2] = biological target: T1, C3b; assay: SPR; amine-coupled C3b (monomeric), steady state
[3] = biological target: T2, iC3b (UniProt P01024 23-667; P01024 749-1303; P01024 1321-1663); assay: SPR; thioester-coupled (clustered), steady state
[4] = biological target: C3dg (UniProt P01024 955-1303); assay: SPR; thioester-coupled (clustered), steady state
[5] = biological target: T2, iC3b; assay: SPR; thioester-coupled (clustered), steady state; remark: listed apart in the source
[6] = biological target: T1, C3b; assay: SPR; amine-coupled C3b (monomeric), steady state; remark: listed apart in the source

T1 sequence (P01024 749-1663, chain 1 of 2): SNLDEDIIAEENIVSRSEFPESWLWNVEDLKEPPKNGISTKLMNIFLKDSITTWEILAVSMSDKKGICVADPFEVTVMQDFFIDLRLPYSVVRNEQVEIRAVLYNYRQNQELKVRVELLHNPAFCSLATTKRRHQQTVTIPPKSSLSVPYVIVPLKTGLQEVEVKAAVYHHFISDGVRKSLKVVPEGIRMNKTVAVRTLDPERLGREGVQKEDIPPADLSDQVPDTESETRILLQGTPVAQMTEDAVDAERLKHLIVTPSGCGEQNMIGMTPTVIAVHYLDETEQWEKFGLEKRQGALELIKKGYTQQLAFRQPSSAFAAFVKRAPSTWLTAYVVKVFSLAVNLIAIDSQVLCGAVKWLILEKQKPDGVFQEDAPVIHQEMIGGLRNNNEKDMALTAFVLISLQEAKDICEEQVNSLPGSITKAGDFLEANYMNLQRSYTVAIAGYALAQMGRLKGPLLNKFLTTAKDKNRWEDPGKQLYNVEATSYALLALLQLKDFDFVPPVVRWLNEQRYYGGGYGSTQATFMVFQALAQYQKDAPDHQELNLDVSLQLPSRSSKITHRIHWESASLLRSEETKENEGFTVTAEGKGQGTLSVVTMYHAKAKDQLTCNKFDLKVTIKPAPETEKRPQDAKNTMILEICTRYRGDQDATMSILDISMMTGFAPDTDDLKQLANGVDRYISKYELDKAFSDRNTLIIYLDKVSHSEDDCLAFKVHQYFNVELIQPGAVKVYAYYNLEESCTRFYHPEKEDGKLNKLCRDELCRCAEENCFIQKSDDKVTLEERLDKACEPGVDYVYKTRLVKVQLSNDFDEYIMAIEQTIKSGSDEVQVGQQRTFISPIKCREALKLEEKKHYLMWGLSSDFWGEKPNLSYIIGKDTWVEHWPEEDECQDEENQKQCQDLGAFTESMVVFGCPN
T1 sequence (P01024 23-667, chain 2 of 2): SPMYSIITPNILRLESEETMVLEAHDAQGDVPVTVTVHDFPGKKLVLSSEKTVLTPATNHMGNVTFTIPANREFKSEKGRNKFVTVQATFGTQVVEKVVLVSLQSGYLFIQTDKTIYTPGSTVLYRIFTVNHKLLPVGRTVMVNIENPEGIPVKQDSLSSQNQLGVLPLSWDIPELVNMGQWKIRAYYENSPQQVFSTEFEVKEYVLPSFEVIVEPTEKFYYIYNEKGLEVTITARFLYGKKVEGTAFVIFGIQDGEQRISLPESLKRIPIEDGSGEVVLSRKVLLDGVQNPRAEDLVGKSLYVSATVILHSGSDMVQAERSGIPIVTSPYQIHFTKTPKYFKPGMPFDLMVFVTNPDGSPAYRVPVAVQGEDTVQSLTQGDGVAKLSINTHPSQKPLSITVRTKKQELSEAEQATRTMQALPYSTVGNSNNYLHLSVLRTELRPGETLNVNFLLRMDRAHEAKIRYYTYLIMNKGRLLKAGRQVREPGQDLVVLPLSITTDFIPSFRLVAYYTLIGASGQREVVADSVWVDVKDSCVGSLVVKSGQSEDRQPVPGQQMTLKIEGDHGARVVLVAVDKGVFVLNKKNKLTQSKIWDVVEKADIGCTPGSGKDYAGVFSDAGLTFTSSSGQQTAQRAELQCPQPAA
T2 sequence (P01024 23-667, chain 1 of 3): as the sequence (P01024 23-667, chain 2 of 2) above
T2 sequence (P01024 749-1303, chain 2 of 3): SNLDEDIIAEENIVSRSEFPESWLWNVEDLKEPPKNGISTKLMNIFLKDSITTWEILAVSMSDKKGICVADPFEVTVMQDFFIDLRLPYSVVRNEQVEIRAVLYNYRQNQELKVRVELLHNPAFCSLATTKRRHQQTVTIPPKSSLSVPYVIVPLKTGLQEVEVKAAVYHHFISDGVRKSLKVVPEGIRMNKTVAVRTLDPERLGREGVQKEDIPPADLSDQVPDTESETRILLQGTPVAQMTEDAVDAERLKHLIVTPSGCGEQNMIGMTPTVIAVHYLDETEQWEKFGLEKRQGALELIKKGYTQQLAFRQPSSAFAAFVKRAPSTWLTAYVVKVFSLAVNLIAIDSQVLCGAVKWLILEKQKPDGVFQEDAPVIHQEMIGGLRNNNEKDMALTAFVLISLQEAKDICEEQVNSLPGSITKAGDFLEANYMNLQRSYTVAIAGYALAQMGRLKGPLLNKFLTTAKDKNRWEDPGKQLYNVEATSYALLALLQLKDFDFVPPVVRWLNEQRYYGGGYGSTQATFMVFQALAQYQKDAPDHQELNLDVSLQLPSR
T2 sequence (P01024 1321-1663, chain 3 of 3): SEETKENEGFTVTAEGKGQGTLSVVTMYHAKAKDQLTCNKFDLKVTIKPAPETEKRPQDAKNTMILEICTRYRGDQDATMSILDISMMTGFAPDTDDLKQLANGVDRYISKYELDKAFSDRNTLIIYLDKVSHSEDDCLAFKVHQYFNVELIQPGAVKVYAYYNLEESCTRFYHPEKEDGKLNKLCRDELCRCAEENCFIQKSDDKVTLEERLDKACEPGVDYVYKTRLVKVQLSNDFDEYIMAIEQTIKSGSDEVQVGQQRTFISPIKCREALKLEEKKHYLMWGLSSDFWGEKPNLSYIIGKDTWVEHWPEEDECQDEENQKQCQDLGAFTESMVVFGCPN
Sequence of C3dg (P01024 955-1303): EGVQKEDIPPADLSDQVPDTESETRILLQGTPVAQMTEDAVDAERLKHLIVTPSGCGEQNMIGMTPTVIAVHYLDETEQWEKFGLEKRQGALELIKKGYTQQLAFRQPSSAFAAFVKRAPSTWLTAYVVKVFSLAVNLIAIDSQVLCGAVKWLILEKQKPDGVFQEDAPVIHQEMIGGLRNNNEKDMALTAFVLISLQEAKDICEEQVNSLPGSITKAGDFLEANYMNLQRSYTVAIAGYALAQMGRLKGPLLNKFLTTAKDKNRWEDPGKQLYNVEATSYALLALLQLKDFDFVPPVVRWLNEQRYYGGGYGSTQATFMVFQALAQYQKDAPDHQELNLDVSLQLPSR

B1: CFHR5 (complement factor H-related protein 5), wild type (other)
chain: EGTLCDFPKIHHGFLYDEEDYNPFSQVPTGEVFYYSCEYNFVSPSKSFWTRITCTEEGWSPTPKCLRMCSFPFVKNGHSESSGLIHLEGDTVQIICNTGYSLQNNEKNISCVERGWSTPPICSFTKGECHVPILEANVDAQPKKESYKVGDVLKFSCRKNLIRVGSDSVQCYQFGWSPNFPTCKGQVRSCGPPPQLSNGEVKEIRKEEYGHNEVVEYDCNPNFIINGPKKIQCVDGEWTTLPTCVEQVKTCGYIPELEYGYVQPSVPPYQHGVSVEVNCRNEYAMIGNNMITCINGIWTELPMCVATHQLKRCKIAGVNIKTLLKLSGKEFNHNSRIRYRCSDIFRYRHSVCINGKWNPEVDCTEKREQFCPPPPQIPNAQNMTTTVNYQDGEKVAVLCKENYLLPEAKEIVCKDGRWQSLPRCVESTAYCGPPPSINNGDTTSFPLSVYPPGSTVTYRCQSFYKLQGSVTVTCRNKQWSEPPRCLDPCVVSEENMNKNNIQLKWRNDGKLYAKTGDAVEFQCKFPHKAMISSPPFRAICQEGKFEYPICE
Q: For B1, which Kd [1] is on record?
A: 310 nM

Q: And the Kd [2]?
A: 3800 nM

Q: And the Kd [3]?
A: 270 nM

Q: What about the Kd [4] of the same binder?
A: 270 nM

B2: Complement factor H (CFH) (other)
chain: EDCNELPPRRNTEILTGSWSDQTYPEGTQAIYKCRPGYRSLGNVIMVCRKGEWVALNPLRKCQKRPCGHPGDTPFGTFTLTGGNVFEYGVKAVYTCNEGYQLLGEINYRECDTDGWTNDIPICEVVKCLPVTAPENGKIVSSAMEPDREYHFGQAVRFVCNSGYKIEGDEEMHCSDDGFWSKEKPKCVEISCKSPDVINGSPISQKIIYKENERFQYKCNMGYEYSERGDAVCTESGWRPLPSCEEKSCDNPYIPNGDYSPLRIKHRTGDEITYQCRNGFYPATRGNTAKCTSTGWIPAPRCTLKPCDYPDIKHGGLYHENMRRPYFPVAVGKYYSYYCDEHFETPSGSYWDHIHCTQDGWSPAVPCLRKCYFPYLENGYNQNYGRKFVQGKSIDVACHPGYALPKAQTTVTCMENGWSPTPRCIRVKTCSKSSIDIENGFISESQYTYALKEKAKYQCKLGYVTADGETSGSITCGKDGWSAQPTCIKSCDIPVFMNARTKNDFTWFKLNDTLDYECHDGYESNTGSTTGSIVCGYNGWSDLPICYERECELPKIDVHLVPDRKKDQYKVGEVLKFSCKPGFTIVGPNSVQCYHFGLSPDLPICKEQVQSCGPPPELLNGNVKEKTKEEYGHSEVVEYYCNPRFLMKGPNKIQCVDGEWTTLPVCIVEESTCGDIPELEHGWAQLSSPPYYYGDSVEFNCSESFTMIGHRSITCIHGVWTQLPQCVAIDKLKKCKSSNLIILEEHLKNKKEFDHNSNIRYRCRGKEGWIHTVCINGRWDPEVNCSMAQIQLCPPPPQIPNSHNMTTTLNYRDGEKVSVLCQENYLIQEGEEITCKDGRWQSIPLCVEKIPCSQPPQIEHGTINSSRSSQESYAHGTKLSYTCEGGFRISEENETTCYMGKWSSPPQCEGLPCKSPPEISHGVVAHMSDSYQYGEEVTYKCFEGFGIDGPAIAKCLGEKWSHPPSCIKTDCLSLPSFENAIPMGEKKDVYKAGEQVTYTCATYYKMDGASNVTCINSRWTGRPTCRDTSCVNPPTVQNAYIVSRQMSKYPSGERVRYQCRSPYEMFGDEEVMCLNGNWTEPPQCKDSTGKCGPPPPIDNGDITSFPLSVYAPASSVEYQCQNLYQLEGNKRITCRNGQWSEPPKCLHPCVISREIMENYNIALRWTAKQKLYSRTGESVEFVCKRGYRLSSRSHTLRTTCWDGKLEYPTCAKR
Q: Which results are given for B2?
A: Kd [5]: 2600 nM; Kd [6]: 1700 nM
